We go through 15 molecules from patent publication US20250332197A1 (SUNSHINE LAKE PHARMA, published 2025).

By Kd is commonly meant the equilibrium constant for the complex coming apart. The low end stands for tighter binding, the high end for weaker binding. Broadly, the koff is the first-order rate constant of dissociation. A high value points to fast dissociation. As usually defined, the kon is a measure of how fast the partners come together. A low value points to slow association. As usually defined, the EC50 is the concentration giving half of the maximal effect. Low readings indicate higher potency in that assay, high ones lower potency in that assay.

The target of test [1] is T1, claudin-18.2 antigen (manufacturer: GenScript, batch number: R50092011) (UniProt P56856-2 1-261, limits assumed).
T1 construct: Bought antigen
T1 sequence (looked up): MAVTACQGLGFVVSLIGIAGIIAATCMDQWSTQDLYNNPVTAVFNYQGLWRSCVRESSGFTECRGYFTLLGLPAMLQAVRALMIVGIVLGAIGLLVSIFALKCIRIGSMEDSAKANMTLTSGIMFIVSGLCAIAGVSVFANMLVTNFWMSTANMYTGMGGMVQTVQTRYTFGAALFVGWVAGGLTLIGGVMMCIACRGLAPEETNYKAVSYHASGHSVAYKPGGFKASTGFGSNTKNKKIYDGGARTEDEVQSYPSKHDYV
The experiment in a line: Gator label-free kinetics, antibody loaded, antigen 2000-500 nM. As to the method: The GATOR instrument and associated software were opened and the Kinetics experimental mode was selected. After data collection, Kinetics fitting was performed to calculate the affinity kinetic parameters. The correlation coefficient R² of all antibodies in the Global fitting mode was greater than 0.95, which met the system suitability requirements and the results were reliable.

The target in test [2] is T1, claudin-18.2 antigen (manufacturer: …). The experiment in a line: ELISA, plate coated with claudin-18.2 antigen. As to the method: The ELISA plates were washed three times with PBST and blocked with 5% PBS-milk for 2 h at room temperature. The ELISA plate was washed three times with PBST, and the diluted antibodies were added to the ELISA plate, 30 μL per well, and incubated at room temperature for 60 min. The plates were washed three times with PBST and incubated with anti-human IgG-Fc-HRP (abcam, ab97225) for 50 min at room temperature. The plate was washed 12 times with PBST, and TMB was added, 30 μL per well. The reaction was terminated with stop solution and OD450 was read. The ELISA affinity EC50 was calculated.
(In general: An ELISA detects its analyte on a solid surface through an enzyme-linked reagent.)

B1: 1E7-huVH4-HC (IgG1) huVL3 (antibody)
heavy: not shown
light: DIQMTQSPSSLSASVGDRVTITCRSSQSLLNSGNQKNYLTWYQQKPGKAPKLLIYWASTRESGVPSRFSGSGSGTDFTLTISSLQPEDFATYYCQNDYSYPFTFGGGTKLEIKRTVAAPSVFIFPPSDEQLKSGTASVVCLLNNFYPREAKVQWKVDNALQSGNSQESVTEQDSKDSTYSLSSTLTLSKADYEKHKVYACEVTHQGLSSPVTKSFNRGEC
notes: humanized 1E7, human IgG1, kappa
With B1, in test [1], the affinity, expressed as Kd, was 2.64 nM; the koff came out at 2.99e-05 s⁻¹; the kon worked out at 11300 M⁻¹ s⁻¹. The molecule further showed an EC50 in test [2] of 0.05 µg/mL.

B2: 1B6-huVH3huVL2 (antibody, human IgG4 S228P, kappa)
heavy: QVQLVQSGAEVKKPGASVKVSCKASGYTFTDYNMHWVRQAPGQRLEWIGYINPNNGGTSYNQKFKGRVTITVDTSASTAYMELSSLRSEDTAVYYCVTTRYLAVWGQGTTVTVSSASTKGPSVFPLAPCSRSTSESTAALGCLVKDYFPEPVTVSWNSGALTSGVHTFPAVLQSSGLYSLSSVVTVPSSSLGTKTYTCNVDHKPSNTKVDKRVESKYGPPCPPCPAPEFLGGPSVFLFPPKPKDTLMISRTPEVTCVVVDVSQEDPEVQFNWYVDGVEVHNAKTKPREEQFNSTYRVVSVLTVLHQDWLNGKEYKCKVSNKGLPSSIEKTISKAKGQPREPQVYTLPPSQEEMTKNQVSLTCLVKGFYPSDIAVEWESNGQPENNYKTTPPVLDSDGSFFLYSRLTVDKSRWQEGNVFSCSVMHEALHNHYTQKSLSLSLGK
light: DIQMTQSPSSLSASVGDRVTMTCKSSQSLFNSGNQKNYLTWYQQKPGKAPKLLIYWASTRESGVPSRFSGSGSGTDFTLTISSLQPEDFATYYCQNDYSYPLTFGGGTKLEIKRTVAAPSVFIFPPSDEQLKSGTASVVCLLNNFYPREAKVQWKVDNALQSGNSQESVTEQDSKDSTYSLSSTLTLSKADYEKHKVYACEVTHQGLSSPVTKSFNRGEC
notes: humanized 1B6, human IgG4, kappa
In test [1], B2 registered a Kd of 12.7 nM, a koff of 0.000121 s⁻¹ and a kon of 9480 M⁻¹ s⁻¹. The molecule also had a concentration giving a half-maximal response (EC50) in test [2] of 0.245 µg/mL.

B3: 1E7-huVH3huVL2 (antibody, human IgG4 S228P, kappa)
heavy: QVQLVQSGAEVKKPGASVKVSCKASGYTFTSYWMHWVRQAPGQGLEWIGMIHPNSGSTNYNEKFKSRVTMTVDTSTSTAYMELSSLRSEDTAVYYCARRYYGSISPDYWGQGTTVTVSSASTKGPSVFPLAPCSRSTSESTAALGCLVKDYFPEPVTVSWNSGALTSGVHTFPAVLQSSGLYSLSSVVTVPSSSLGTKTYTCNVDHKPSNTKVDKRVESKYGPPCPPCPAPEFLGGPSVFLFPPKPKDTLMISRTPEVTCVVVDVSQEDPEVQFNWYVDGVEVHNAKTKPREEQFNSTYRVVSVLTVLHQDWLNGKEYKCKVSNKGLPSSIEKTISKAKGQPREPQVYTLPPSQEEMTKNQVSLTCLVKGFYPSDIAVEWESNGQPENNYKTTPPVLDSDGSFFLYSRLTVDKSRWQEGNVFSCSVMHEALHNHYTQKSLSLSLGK
light: DIQMTQSPSSLSASVGDRVTMTCKSSQSLLNSGNQKNYLTWYQQKPGKAPKLLIYWASTRESGVPSRFSGSGSGTDFTLTISSLQPEDFATYYCQNDYSYPFTFGGGTKLEIKRTVAAPSVFIFPPSDEQLKSGTASVVCLLNNFYPREAKVQWKVDNALQSGNSQESVTEQDSKDSTYSLSSTLTLSKADYEKHKVYACEVTHQGLSSPVTKSFNRGEC
notes: humanized 1E7, human IgG4, kappa
For B3, in test [1], the Kd came out at 2.02 nM, the koff came to 2.08e-05 s⁻¹ and the kon stood at 10300 M⁻¹ s⁻¹. In test [2], this molecule yielded an EC50 of 0.56 µg/mL.

B4: 1E7-huVH1huVL1 (antibody, human IgG4 S228P, kappa)
heavy: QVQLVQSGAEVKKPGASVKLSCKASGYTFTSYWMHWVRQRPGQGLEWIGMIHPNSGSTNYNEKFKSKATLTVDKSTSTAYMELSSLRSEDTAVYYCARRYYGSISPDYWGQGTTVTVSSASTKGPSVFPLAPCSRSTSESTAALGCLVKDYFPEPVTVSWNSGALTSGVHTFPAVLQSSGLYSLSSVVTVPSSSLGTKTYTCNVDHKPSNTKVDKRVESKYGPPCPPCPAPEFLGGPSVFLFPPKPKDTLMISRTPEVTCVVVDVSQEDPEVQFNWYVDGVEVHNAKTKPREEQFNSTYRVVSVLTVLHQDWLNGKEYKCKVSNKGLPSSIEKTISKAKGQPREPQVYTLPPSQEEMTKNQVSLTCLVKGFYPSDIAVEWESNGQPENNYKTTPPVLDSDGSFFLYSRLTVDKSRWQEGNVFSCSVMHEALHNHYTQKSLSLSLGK
light: DIVMTQSPSSLSVSVGDRVTMTCKSSQSLLNSGNQKNYLTWYQQKPGQPPKLLIYWASTRESGVPDRFSGSGSGTDFTLTISSVQPEDFATYYCQNDYSYPFTFGGGTKLEIKRTVAAPSVFIFPPSDEQLKSGTASVVCLLNNFYPREAKVQWKVDNALQSGNSQESVTEQDSKDSTYSLSSTLTLSKADYEKHKVYACEVTHQGLSSPVTKSFNRGEC
notes: as for B3
For the molecule B4, in test [1], the affinity, expressed as Kd, was 3.58 nM; the koff turned out to be 3.81e-05 s⁻¹; the on-rate (kon) was 10600 M⁻¹ s⁻¹. The same molecule registered an EC50 in test [2] of 0.309 µg/mL.

B5: 1B6-huVH3huVL1 (antibody, human IgG4 S228P, kappa)
heavy: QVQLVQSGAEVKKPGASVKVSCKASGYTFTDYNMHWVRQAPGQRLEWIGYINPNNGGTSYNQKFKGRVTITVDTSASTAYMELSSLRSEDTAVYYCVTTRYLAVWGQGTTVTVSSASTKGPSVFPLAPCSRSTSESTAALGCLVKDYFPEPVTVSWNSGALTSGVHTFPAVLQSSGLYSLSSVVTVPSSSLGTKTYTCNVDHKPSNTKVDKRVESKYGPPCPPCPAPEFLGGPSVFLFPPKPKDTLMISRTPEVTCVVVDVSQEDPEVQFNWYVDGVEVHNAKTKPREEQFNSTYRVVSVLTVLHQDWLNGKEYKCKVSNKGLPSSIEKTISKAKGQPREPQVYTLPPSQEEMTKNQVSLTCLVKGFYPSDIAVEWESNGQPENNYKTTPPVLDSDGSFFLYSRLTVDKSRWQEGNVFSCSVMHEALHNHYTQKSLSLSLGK
light: DIVMTQSPSSLSVSVGDRVTMTCKSSQSLFNSGNQKNYLTWYQQKPGKAPKLLIYWASTRESGVPDRFSGSGSGTDFTLTISSVQPEDFATYFCQNDYSYPLTFGGGTKLEIKRTVAAPSVFIFPPSDEQLKSGTASVVCLLNNFYPREAKVQWKVDNALQSGNSQESVTEQDSKDSTYSLSSTLTLSKADYEKHKVYACEVTHQGLSSPVTKSFNRGEC
notes: humanized 1B6, human IgG4, kappa; also called P04887
Take B5: in test [1], binding was characterised by a dissociation constant (Kd) of 0.98 nM, the koff turned out to be 1.27e-05 s⁻¹ and the kon worked out at 13000 M⁻¹ s⁻¹. In test [2], this molecule registered an EC50 of 0.0569 µg/mL.

B6: 1B6-huVH5huVL3 (antibody, human IgG4 S228P, kappa)
heavy: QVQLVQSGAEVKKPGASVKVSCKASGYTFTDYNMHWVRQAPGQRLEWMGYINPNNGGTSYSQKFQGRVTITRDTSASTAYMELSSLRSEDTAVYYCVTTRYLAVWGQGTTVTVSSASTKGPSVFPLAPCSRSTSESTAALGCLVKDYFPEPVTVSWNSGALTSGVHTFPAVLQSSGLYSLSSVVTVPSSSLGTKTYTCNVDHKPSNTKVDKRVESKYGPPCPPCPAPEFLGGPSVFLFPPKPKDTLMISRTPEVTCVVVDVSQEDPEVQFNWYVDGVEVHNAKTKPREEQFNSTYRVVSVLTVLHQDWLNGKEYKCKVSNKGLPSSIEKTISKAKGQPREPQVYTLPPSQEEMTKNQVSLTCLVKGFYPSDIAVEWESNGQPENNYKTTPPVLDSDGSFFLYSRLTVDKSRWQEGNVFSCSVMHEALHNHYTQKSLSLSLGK
light: DIQMTQSPSSLSASVGDRVTITCRSSQSLFNSGNQKNYLTWYQQKPGKAPKLLIYWASTRESGVPSRFSGSGSGTDFTLTISSLQPEDFATYYCQNDYSYPLTFGGGTKLEIKRTVAAPSVFIFPPSDEQLKSGTASVVCLLNNFYPREAKVQWKVDNALQSGNSQESVTEQDSKDSTYSLSSTLTLSKADYEKHKVYACEVTHQGLSSPVTKSFNRGEC
notes: as for B2
Regarding B6, in test [1], the Kd was found to be 7.51 nM, the koff was 9.78e-05 s⁻¹ and the kon worked out at 13000 M⁻¹ s⁻¹. The molecule further gave a half-maximal effective concentration (EC50) in test [2] of 0.174 µg/mL.

B7: 1B6-huVH4huVL3 (antibody, human IgG4 S228P, kappa)
heavy: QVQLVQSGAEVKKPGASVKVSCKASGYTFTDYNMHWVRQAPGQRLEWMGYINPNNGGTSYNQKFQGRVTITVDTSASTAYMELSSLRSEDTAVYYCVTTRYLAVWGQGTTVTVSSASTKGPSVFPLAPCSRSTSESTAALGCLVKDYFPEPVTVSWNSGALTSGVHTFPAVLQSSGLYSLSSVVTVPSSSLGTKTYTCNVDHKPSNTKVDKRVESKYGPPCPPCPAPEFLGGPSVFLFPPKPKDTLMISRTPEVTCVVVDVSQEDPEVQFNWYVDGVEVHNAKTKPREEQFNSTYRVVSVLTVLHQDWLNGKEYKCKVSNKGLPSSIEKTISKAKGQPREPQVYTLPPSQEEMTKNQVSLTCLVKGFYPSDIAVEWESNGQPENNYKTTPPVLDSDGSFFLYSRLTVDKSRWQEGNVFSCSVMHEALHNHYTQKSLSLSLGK
light: DIQMTQSPSSLSASVGDRVTITCRSSQSLFNSGNQKNYLTWYQQKPGKAPKLLIYWASTRESGVPSRFSGSGSGTDFTLTISSLQPEDFATYYCQNDYSYPLTFGGGTKLEIKRTVAAPSVFIFPPSDEQLKSGTASVVCLLNNFYPREAKVQWKVDNALQSGNSQESVTEQDSKDSTYSLSSTLTLSKADYEKHKVYACEVTHQGLSSPVTKSFNRGEC
notes: humanized 1B6, human IgG4, kappa; also called P04891
For B7, in test [1], binding was characterised by a dissociation constant (Kd) of 7.24 nM, the koff stood at 8.07e-05 s⁻¹ and the kon turned out to be 11100 M⁻¹ s⁻¹. The same molecule had a concentration for a half-maximal effect (EC50) in test [2] of 0.346 µg/mL.

B8: 1B6-huVH4huVL2 (antibody, human IgG4 S228P, kappa)
heavy: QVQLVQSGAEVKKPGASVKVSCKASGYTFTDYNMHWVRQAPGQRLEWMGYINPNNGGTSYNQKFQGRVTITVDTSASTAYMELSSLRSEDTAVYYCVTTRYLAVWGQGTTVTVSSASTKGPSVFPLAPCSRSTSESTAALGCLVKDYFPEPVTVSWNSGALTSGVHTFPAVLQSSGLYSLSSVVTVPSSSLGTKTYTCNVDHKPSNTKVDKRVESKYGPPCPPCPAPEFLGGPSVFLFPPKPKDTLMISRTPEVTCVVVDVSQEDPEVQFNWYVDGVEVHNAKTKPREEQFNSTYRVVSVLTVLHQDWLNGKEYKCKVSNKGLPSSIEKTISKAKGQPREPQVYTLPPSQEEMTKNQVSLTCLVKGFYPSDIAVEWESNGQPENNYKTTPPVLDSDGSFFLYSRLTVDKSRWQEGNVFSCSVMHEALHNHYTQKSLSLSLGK
light: DIQMTQSPSSLSASVGDRVTMTCKSSQSLFNSGNQKNYLTWYQQKPGKAPKLLIYWASTRESGVPSRFSGSGSGTDFTLTISSLQPEDFATYYCQNDYSYPLTFGGGTKLEIKRTVAAPSVFIFPPSDEQLKSGTASVVCLLNNFYPREAKVQWKVDNALQSGNSQESVTEQDSKDSTYSLSSTLTLSKADYEKHKVYACEVTHQGLSSPVTKSFNRGEC
notes: as for B2
Take B8: in test [1], the Kd was 7.06 nM, the koff was found to be 7.06e-05 s⁻¹ and the kon worked out at 9990 M⁻¹ s⁻¹. In addition, the EC50 in test [2] was determined as 0.21 µg/mL.

B9: 1E7-huVH5-HC (IgG1) huVL2 (antibody)
heavy: not shown
light: DIQMTQSPSSLSASVGDRVTMTCKSSQSLLNSGNQKNYLTWYQQKPGKAPKLLIYWASTRESGVPSRFSGSGSGTDFTLTISSLQPEDFATYYCQNDYSYPFTFGGGTKLEIKRTVAAPSVFIFPPSDEQLKSGTASVVCLLNNFYPREAKVQWKVDNALQSGNSQESVTEQDSKDSTYSLSSTLTLSKADYEKHKVYACEVTHQGLSSPVTKSFNRGEC
notes: as for B1
In test [1], B9 showed a dissociation constant Kd of 13.1 nM, a koff of 0.000167 s⁻¹ and a kon of 12800 M⁻¹ s⁻¹. Further, the half-maximal effective concentration (EC50) in test [2] was found to be 0.141 µg/mL.

B10: 1B6-huVH2huVL1 (antibody, human IgG4 S228P, kappa)
heavy: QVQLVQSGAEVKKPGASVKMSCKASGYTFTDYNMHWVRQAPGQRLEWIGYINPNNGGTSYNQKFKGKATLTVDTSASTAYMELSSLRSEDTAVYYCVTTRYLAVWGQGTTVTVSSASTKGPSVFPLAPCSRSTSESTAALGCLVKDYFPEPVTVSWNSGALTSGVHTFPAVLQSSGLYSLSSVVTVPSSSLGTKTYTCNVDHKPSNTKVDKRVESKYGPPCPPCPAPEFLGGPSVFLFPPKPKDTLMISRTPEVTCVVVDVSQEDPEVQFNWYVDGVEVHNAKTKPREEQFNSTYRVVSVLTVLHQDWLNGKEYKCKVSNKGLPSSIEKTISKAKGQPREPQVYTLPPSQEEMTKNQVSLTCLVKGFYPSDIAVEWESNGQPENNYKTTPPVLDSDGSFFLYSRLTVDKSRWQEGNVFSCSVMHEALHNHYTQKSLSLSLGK
light: DIVMTQSPSSLSVSVGDRVTMTCKSSQSLFNSGNQKNYLTWYQQKPGKAPKLLIYWASTRESGVPDRFSGSGSGTDFTLTISSVQPEDFATYFCQNDYSYPLTFGGGTKLEIKRTVAAPSVFIFPPSDEQLKSGTASVVCLLNNFYPREAKVQWKVDNALQSGNSQESVTEQDSKDSTYSLSSTLTLSKADYEKHKVYACEVTHQGLSSPVTKSFNRGEC
notes: as for B2
For the molecule B10, in test [1], the Kd was 4.57 nM, the koff amounted to 6.36e-05 s⁻¹ and the kon came to 13900 M⁻¹ s⁻¹. The same molecule showed an EC50 in test [2] of 0.0978 µg/mL.

B11: 1B6-huVH2huVL2 (antibody, human IgG4 S228P, kappa)
heavy: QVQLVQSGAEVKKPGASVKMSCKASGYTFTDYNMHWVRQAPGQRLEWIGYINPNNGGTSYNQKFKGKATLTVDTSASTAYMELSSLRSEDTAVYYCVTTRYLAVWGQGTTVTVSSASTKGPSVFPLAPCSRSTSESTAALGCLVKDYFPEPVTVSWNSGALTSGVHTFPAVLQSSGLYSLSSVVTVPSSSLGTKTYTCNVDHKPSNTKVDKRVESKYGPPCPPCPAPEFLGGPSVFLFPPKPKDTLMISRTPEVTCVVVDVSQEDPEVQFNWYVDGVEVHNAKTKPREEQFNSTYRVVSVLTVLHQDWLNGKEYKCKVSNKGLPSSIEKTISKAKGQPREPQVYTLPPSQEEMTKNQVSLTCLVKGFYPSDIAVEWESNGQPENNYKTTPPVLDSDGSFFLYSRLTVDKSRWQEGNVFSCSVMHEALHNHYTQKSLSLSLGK
light: DIQMTQSPSSLSASVGDRVTMTCKSSQSLFNSGNQKNYLTWYQQKPGKAPKLLIYWASTRESGVPSRFSGSGSGTDFTLTISSLQPEDFATYYCQNDYSYPLTFGGGTKLEIKRTVAAPSVFIFPPSDEQLKSGTASVVCLLNNFYPREAKVQWKVDNALQSGNSQESVTEQDSKDSTYSLSSTLTLSKADYEKHKVYACEVTHQGLSSPVTKSFNRGEC
notes: as for B2
On to B11, for which, in test [1], the Kd is 4.86 nM, the koff stood at 6.78e-05 s⁻¹ and the kon was determined as 13900 M⁻¹ s⁻¹. Besides, the EC50 in test [2] was found to be 0.192 µg/mL.

B12: 1B6-huVH1huVL2 (antibody, human IgG4 S228P, kappa)
heavy: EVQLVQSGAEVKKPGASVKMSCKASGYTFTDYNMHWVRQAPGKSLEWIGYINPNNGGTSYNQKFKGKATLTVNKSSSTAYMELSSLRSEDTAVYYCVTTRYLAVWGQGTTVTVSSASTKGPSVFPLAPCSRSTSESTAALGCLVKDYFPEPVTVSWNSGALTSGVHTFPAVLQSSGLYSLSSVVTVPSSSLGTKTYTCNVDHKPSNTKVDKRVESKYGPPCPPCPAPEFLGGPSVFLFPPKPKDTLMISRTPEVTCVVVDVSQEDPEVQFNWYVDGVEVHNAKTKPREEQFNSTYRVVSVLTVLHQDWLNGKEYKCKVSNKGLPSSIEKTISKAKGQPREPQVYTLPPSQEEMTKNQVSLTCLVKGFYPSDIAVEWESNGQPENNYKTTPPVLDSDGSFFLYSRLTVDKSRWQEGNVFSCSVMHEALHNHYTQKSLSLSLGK
light: DIQMTQSPSSLSASVGDRVTMTCKSSQSLFNSGNQKNYLTWYQQKPGKAPKLLIYWASTRESGVPSRFSGSGSGTDFTLTISSLQPEDFATYYCQNDYSYPLTFGGGTKLEIKRTVAAPSVFIFPPSDEQLKSGTASVVCLLNNFYPREAKVQWKVDNALQSGNSQESVTEQDSKDSTYSLSSTLTLSKADYEKHKVYACEVTHQGLSSPVTKSFNRGEC
notes: as for B2
In test [1], B12 displayed a Kd of 10.6 nM, a koff of 0.000164 s⁻¹ and a kon of 15500 M⁻¹ s⁻¹. The molecule further gave an EC50 in test [2] of 0.0775 µg/mL.

B13: 1B6-huVH3huVL3 (antibody, human IgG4 S228P, kappa)
heavy: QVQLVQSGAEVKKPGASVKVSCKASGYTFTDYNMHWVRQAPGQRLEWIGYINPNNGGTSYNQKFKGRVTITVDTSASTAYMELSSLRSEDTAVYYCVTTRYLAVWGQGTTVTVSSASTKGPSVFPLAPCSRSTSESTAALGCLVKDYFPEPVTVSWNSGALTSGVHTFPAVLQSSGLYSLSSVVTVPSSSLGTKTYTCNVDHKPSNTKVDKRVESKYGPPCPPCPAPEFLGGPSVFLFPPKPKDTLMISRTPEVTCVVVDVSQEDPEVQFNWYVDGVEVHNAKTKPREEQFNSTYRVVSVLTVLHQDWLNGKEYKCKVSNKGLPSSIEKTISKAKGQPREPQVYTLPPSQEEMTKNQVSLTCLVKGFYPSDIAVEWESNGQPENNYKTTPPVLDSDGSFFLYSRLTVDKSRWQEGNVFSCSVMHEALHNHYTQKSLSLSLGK
light: DIQMTQSPSSLSASVGDRVTITCRSSQSLFNSGNQKNYLTWYQQKPGKAPKLLIYWASTRESGVPSRFSGSGSGTDFTLTISSLQPEDFATYYCQNDYSYPLTFGGGTKLEIKRTVAAPSVFIFPPSDEQLKSGTASVVCLLNNFYPREAKVQWKVDNALQSGNSQESVTEQDSKDSTYSLSSTLTLSKADYEKHKVYACEVTHQGLSSPVTKSFNRGEC
notes: as for B2
In test [1], B13 returned a Kd of 8.11 nM, a koff of 8.56e-05 s⁻¹ and a kon of 10600 M⁻¹ s⁻¹. The molecule further registered an EC50 in test [2] of 0.209 µg/mL.

B14: 1B6-huVH5huVL2 (antibody, human IgG4 S228P, kappa)
heavy: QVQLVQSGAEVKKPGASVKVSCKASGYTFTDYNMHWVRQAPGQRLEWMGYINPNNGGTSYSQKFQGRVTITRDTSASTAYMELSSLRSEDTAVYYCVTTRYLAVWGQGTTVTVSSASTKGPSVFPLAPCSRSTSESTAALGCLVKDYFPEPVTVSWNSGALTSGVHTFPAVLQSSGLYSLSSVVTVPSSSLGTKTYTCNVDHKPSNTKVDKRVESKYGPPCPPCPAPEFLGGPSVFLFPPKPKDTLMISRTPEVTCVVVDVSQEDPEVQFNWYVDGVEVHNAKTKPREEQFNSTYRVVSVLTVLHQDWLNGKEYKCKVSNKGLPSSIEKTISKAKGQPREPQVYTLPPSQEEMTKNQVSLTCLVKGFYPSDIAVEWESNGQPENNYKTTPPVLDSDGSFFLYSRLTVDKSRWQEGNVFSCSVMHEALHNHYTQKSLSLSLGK
light: DIQMTQSPSSLSASVGDRVTMTCKSSQSLFNSGNQKNYLTWYQQKPGKAPKLLIYWASTRESGVPSRFSGSGSGTDFTLTISSLQPEDFATYYCQNDYSYPLTFGGGTKLEIKRTVAAPSVFIFPPSDEQLKSGTASVVCLLNNFYPREAKVQWKVDNALQSGNSQESVTEQDSKDSTYSLSSTLTLSKADYEKHKVYACEVTHQGLSSPVTKSFNRGEC
notes: as for B2
In test [1], B14 displayed a dissociation constant (Kd) of 10.6 nM, a koff of 0.000144 s⁻¹ and a kon of 13600 M⁻¹ s⁻¹. Besides, the EC50 in test [2] is 0.202 µg/mL.

B15: 1E7-huVH5-HC (IgG1) huVL3 (antibody)
heavy: not shown
light: DIQMTQSPSSLSASVGDRVTITCRSSQSLLNSGNQKNYLTWYQQKPGKAPKLLIYWASTRESGVPSRFSGSGSGTDFTLTISSLQPEDFATYYCQNDYSYPFTFGGGTKLEIKRTVAAPSVFIFPPSDEQLKSGTASVVCLLNNFYPREAKVQWKVDNALQSGNSQESVTEQDSKDSTYSLSSTLTLSKADYEKHKVYACEVTHQGLSSPVTKSFNRGEC
notes: as for B1
Take B15: in test [1], the affinity, expressed as Kd, was 0.929 nM; the koff worked out at 9.83e-06 s⁻¹; the kon turned out to be 10600 M⁻¹ s⁻¹. For the same molecule, the EC50 in test [2] is 0.13 µg/mL.
